The supplement of paper PMC7125110
± gives the standard error. For part of these data: This sample holds only a part of the variants without activity.

B1: glmS ribozyme (parent)
chain: AUAAAAGCGCCAGAACUACAGAAAUGUAGUUGACGAGGAGGAGGUUUAUCGAAUUUUCGGCGGAUGCCUCCAAA

How the values were obtained:
Conditions in all cases: with glucosamine-6-phosphate
glucosamine-6-phosphate [1] = variants of: B1; assay: kcat; higher = faster cleavage; RNA array
Procedure, shortened: (§1)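 A hybridised Cy3 probe tracked barcoded ribozyme variants, transcribed in situ by E. coli RNA polymerase on sequenced MiSeq chips, at 37 °C. The variants received 40 μM to 10 mM glucosamine-6-phosphate in HEPES/KCl/Mg(OAc)2 buffer. kobs came from decay fits and kcat and KM from weighted Michaelis–Menten fits.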

glucosamine-6-phosphate [2] = variants of: B1; assay: KM; higher = weaker cofactor use; RNA array
Procedure, shortened: as §1

glucosamine-6-phosphate [3] = variants of: B1; assay: self-cleavage kobs at 2500 uM GlcN6P; higher = faster cleavage; RNA array
Procedure, shortened: as §1

glucosamine-6-phosphate [4] = variants of: B1; assay: self-cleavage kobs at 10000 uM GlcN6P; higher = faster cleavage; RNA array
Procedure, shortened: as §1

glucosamine-6-phosphate [5] = variants of: B1; assay: self-cleavage kobs at 160 uM GlcN6P; higher = faster cleavage; RNA array
Procedure, shortened: as §1

glucosamine-6-phosphate [6] = variants of: B1; assay: self-cleavage kobs at 640 uM GlcN6P; higher = faster cleavage; RNA array
Procedure, shortened: as §1

glucosamine-6-phosphate [7] = variants of: B1; assay: self-cleavage kobs at 40 uM GlcN6P; higher = faster cleavage; RNA array
Procedure, shortened: as §1

| Variant | kcat (glucosamine-6-phosphate [1]) | KM (glucosamine-6-phosphate [2]) | self-cleavage kobs at 2500 uM GlcN6P (glucosamine-6-phosphate [3]) | self-cleavage kobs at 10000 uM GlcN6P (glucosamine-6-phosphate [4]) | self-cleavage kobs at 160 uM GlcN6P (glucosamine-6-phosphate [5]) | self-cleavage kobs at 640 uM GlcN6P (glucosamine-6-phosphate [6]) | self-cleavage kobs at 40 uM GlcN6P (glucosamine-6-phosphate [7]) |
| --- | --- | --- | --- | --- | --- | --- | --- |
| AUAAAAGCGCCAGAACUACAGAAAUGUAGUUGACGAGGAGGUGGUAUAUCGAAUUUUCGGCGGAUGCCUCCAAA [A42U U46A] | 0.000165 ± 3.2e-05 s⁻¹ | 4410 ± 1900 µM | 7.32e-05 ± 1.7e-05 s⁻¹ | 0.000112 ± 1.7e-05 s⁻¹ | – | – | – |
| AUAAAAGCGCCAGAACUACAGAAAUGUAGGUGACGAGGAGGAGGUCUAUCGAAUUUUCGGCGGAUGCCUCCAAA [U30G U46C] | 0.000516 ± 3.6e-05 s⁻¹ | 1240 ± 170 µM | 0.000377 ± 7.4e-05 s⁻¹ | 0.000443 ± 8.5e-05 s⁻¹ | 6.38e-05 ± 2.1e-05 s⁻¹ | 0.000167 ± 3.1e-05 s⁻¹ | – |
| AUAAAAGCGCCAGAACUACAGAAAUGUAGUUGACGAGGAGGAGGGUUAUCGAAUCUUCGGCGGAUGCCUCCAAA [U45G U55C] | 0.00551 ± 0.00089 s⁻¹ | 2350 ± 590 µM | 0.00273 ± 0.00035 s⁻¹ | 0.00455 ± 0.00058 s⁻¹ | 0.000297 ± 5.2e-05 s⁻¹ | 0.00131 ± 0.0002 s⁻¹ | 0.000129 ± 2.6e-05 s⁻¹ |
| AUAAAAGCGCCAGACCUACAGAAAUGUAGUUGACGAGGAGGAGGUUGAUCGAAUUUUCGGCGGAUGCCUCCAAA [A15C U47G] | 0.000994 ± 5.2e-05 s⁻¹ | 1270 ± 120 µM | 0.000675 ± 8.1e-05 s⁻¹ | 0.000889 ± 9.5e-05 s⁻¹ | 0.000121 ± 2e-05 s⁻¹ | 0.000312 ± 3.6e-05 s⁻¹ | 3.18e-05 ± 7.5e-06 s⁻¹ |
| AUAAAAGCGCCUGCACUACAGAAAUGUAGUUGACGAGGAGGAGGUUUAUCGAAUUUUCGGCGGAUGCCUCCAAA [A12U A14C] | 0.00505 ± 0.0013 s⁻¹ | 1630 ± 560 µM | 0.00261 ± 0.00038 s⁻¹ | 0.00546 ± 0.00066 s⁻¹ | 0.000429 ± 6.9e-05 s⁻¹ | 0.00117 ± 0.00016 s⁻¹ | 0.000142 ± 1.3e-05 s⁻¹ |
| AUAAAAGCGCCGGAACUACAGAAAUGUAGUUGACGAGGAGGAGGUUUAUCGAUUUUUCGGCGGAUGCCUCCAAA [A12G A53U] | 0.00085 ± 8.4e-05 s⁻¹ | 4340 ± 620 µM | 0.000319 ± 3e-05 s⁻¹ | 0.00058 ± 6.7e-05 s⁻¹ | 2.34e-05 ± 7.6e-06 s⁻¹ | 0.000112 ± 1e-05 s⁻¹ | – |
| AUAAAAGCGCCAGAACUACAGAAAUGUAUUUGACGAGGAGGAGGUUUAUCGAAUUUUCAGCGGAUGCCUCCAAA [G29U G59A] | 1.03e-05 ± 3.2e-06 s⁻¹ | – | – | – | – | – | < 1e-05 s⁻¹ |
| AUAAAAGCGCCAGAAAUACAGAAAUGUAGUUGACGAGGAGGAGGUUUAUCGAAUUUUCGGCGGAUGCUUCCAAA [C16A C68U] | 9.12e-05 ± 2.9e-06 s⁻¹ | 878 ± 110 µM | 6.55e-05 ± 6.5e-06 s⁻¹ | 8.53e-05 ± 7.2e-06 s⁻¹ | – | 3.93e-05 ± 7.5e-06 s⁻¹ | – |
| AUAAAAGCGCCAGAACUACAGAAAUGUAGUUGACGAGGAGGAGGUUUAUCGAAUUUUCAGCGGAUGCCUCUAAA [G59A C71U] | 6.15e-05 ± 1.4e-06 s⁻¹ | 1210 ± 130 µM | 4.05e-05 ± 7.8e-06 s⁻¹ | 5.51e-05 ± 6.9e-06 s⁻¹ | – | – | < 1e-05 s⁻¹ |
| AUAAAAGCGCCAGAACUACAGAAAUGUAGUUGACGAGGAGGAGGUUUAUCGAAUUUUCGGCGGAAAGCUCUAAA [U65A G66A C67G C71U] | 8.39e-05 ± 1.9e-05 s⁻¹ | – | 8.49e-05 ± 2.1e-05 s⁻¹ | 6.69e-05 ± 1.9e-05 s⁻¹ | – | – | – |
| AUAAAAGCGCAAGGACUACAGAAAUGUAGUUGACGAGGAGGAGGUUUAUCGAAUUUUCGGCGGAGGCCUCCAAA [C11A A14G U65G] | 0.000152 ± 6.2e-06 s⁻¹ | 1370 ± 200 µM | 9.32e-05 ± 2e-05 s⁻¹ | 0.000135 ± 1.7e-05 s⁻¹ | – | 5.21e-05 ± 1.7e-05 s⁻¹ | – |
| AUAAAAGCGCCAGAACUACAGAAAUGUAGUUGACGAGGAGGAGGUUUAUCGAAUUUUAGGCGGGUGCCUCAAAA [C58A A64G C71A] | 2.69e-05 ± 7.4e-06 s⁻¹ | – | – | – | – | – | – |
| AUAAAAGCGCCAGAACUACAGAAAUGUAGUAGACGACGAGGAGGUUUAUCGAAUUUUCGGCGGAUGCCUCCAAA [U31A G37C] | 3.35e-05 ± 2.7e-06 s⁻¹ | 1840 ± 580 µM | – | – | – | – | – |
| AUAAAAGCGCCAGAACUACAGAAAUGUAGUCGACGAUGAGGAGGUUUAUCGAAUUUUCGGCGGAUGCCUCCAAA [U31C G37U] | < 1e-05 s⁻¹ | – | – | – | – | < 1e-05 s⁻¹ | < 1e-05 s⁻¹ |
| AUAAAUGCGCCAGAACUACAGAAAUGUAGCUGACGAGGAGGAGGUUUAUCGAAUUUUCGGCGGAUGCUUCCAAA [A6U U30C C68U] | 2.13e-05 ± 7.2e-06 s⁻¹ | – | – | – | – | < 1e-05 s⁻¹ | – |
| AUAAAAGCUCCAGAACUACAGAAAUGUAGUUGACGAGGUGGAGGUUUAUCGAAUUUUCGGAGGAUGCCUCCAAA [G9U A39U C61A] | 0.000456 ± 2.3e-05 s⁻¹ | 503 ± 58 µM | 0.000376 ± 0.00013 s⁻¹ | 0.00046 ± 0.00017 s⁻¹ | 0.000118 ± 4.8e-05 s⁻¹ | 0.000243 ± 6.2e-05 s⁻¹ | – |
| AUAAAAGCGACAGAACUACAGAAAUGUAGUUGACGAGGAGGAGGUUUAUCGAAUUUUCGGCGGAUGUCUCGAAA [C10A C67U C71G] | 2.93e-05 ± 1.4e-05 s⁻¹ | – | – | – | – | – | – |
| AUAAAAGCGCUAGAACUACAGAAAUGUAGUUGACGAGGAGGAGGUUUAUGGAAUUUUAGGCGGAUGCCUCCAAA [C11U C50G C58A] | 0.000158 ± 1.6e-05 s⁻¹ | – | 0.000242 ± 0.00011 s⁻¹ | 0.000135 ± 2.2e-05 s⁻¹ | 0.00015 ± 1.7e-05 s⁻¹ | 0.000189 ± 3e-05 s⁻¹ | 0.000112 ± 3.6e-05 s⁻¹ |
